Molecular target: CD40 on purified human B cells (human, UniProt P25942 21-277)
Test: cell-based or functional assay

CD40 on purified human B cells, sequence (P25942 21-277): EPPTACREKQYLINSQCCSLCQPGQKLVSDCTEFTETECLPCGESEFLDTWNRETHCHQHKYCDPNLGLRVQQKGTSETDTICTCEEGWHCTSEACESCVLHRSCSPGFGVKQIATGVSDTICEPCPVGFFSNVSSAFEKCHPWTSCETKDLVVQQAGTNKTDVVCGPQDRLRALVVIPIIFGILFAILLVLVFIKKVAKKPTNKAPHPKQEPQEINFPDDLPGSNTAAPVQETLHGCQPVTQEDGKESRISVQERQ

| Activity shift, B cell activation | EC50 (M), B cell activation (percentage of CD86 positive B cells, flow cytometry, 48 hours) | Binder |
| --- | --- | --- |
| 2000 fold |  | anti-Alb mask070 L040 anti-CD40, C2905, C2764, L040 (-) Protease (bispecific antibody, human IgG1, kappa) heavy: not shown light: EVQLVESGGGLVQPGNSLTLSCAASGFTFSKFGMSWVRQARAASAGQGLEWVSSISGSGRDTLYADSVKGRFTISRDNAKTTLYLQMNSLRPEDTAVYYCTIGGSLSVSSQGTLVTVSSGGGGPQASTGRSGGGGSDIQMTQSPSSVSASVGDRVTITCRASQGIYSWLAWYQQKPGKAPNLLIYTASTLQSGVPSRFSGSGSGTDFTLTISSLQPEDFATYYCQQANIFPLTFGGGTKVEIKRTVAAPSVFIFPPSDEQLKSGTASVVCLLNNFYPREAKVQWKVDNALQSGNSQESVTEQDSKDSTYSLSSTLTLSKADYEKHKVYACEVTHQGLSSPVTKSFNRGEC |
| 1 fold | 1.6e-11 M | anti-Alb mask070 L040 anti-CD40, C2905, C2764, L040 (+) Protease (antibody) heavy: not shown light: EVQLVESGGGLVQPGNSLTLSCAASGFTFSKFGMSWVRQARAASAGQGLEWVSSISGSGRDTLYADSVKGRFTISRDNAKTTLYLQMNSLRPEDTAVYYCTIGGSLSVSSQGTLVTVSSGGGGPQASTGRSGGGGSDIQMTQSPSSVSASVGDRVTITCRASQGIYSWLAWYQQKPGKAPNLLIYTASTLQSGVPSRFSGSGSGTDFTLTISSLQPEDFATYYCQQANIFPLTFGGGTKVEIKRTVAAPSVFIFPPSDEQLKSGTASVVCLLNNFYPREAKVQWKVDNALQSGNSQESVTEQDSKDSTYSLSSTLTLSKADYEKHKVYACEVTHQGLSSPVTKSFNRGEC |

Molecular target: T1, C00703 huCD40::Fc (human)
T1 construct: also called human CD40 protein; immobilized huCD40
T1 sequence (chain, as listed by the source limits assumed): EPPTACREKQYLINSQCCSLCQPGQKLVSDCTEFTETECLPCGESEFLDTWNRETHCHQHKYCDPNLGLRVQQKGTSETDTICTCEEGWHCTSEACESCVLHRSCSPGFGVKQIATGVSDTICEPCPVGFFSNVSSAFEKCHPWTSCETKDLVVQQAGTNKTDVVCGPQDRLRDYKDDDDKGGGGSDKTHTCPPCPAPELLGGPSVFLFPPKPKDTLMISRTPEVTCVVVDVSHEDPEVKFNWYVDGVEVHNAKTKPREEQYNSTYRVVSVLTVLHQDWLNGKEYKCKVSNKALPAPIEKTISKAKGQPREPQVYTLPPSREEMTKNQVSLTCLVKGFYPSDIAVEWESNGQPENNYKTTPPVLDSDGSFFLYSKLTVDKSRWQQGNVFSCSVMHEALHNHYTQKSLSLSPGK
Test: BLI (Octet); huCD40::Fc immobilized, masked protein at 100 nM in conditioned media; nm shift relative to unmasked control anti-Alb-anti-CD40

| Binding response (% of control) | Binder |
| --- | --- |
| 65 % of control | anti-Alb-CD-2-A10 masked anti-CD40 protein with anti-CD40 heavy chain SEQ ID No. 73 (bispecific antibody, human IgG1, kappa, Built as m2; Signal domain left out; Tested in conditioned media; also called aAlb-CD-2-A10) heavy: not shown light: EVQLVESGGGLVQPGNSLTLSCAASGFTFSKFGMSWVRQAVGTRETSGGLEWVSSISGSGRDTLYADSVKGRFTISRDNAKTTLYLQMNSLRPEDTAVYYCTIGGSLSVSSQGTLVTVSSGGGGSGGGSGGGGSGGGSDIQMTQSPSSVSASVGDRVTITCRASQGIYSWLAWYQQKPGKAPNLLIYTASTLQSGVPSRFSGSGSGTDFTLTISSLQPEDFATYYCQQANIFPLTFGGGTKVEIKRTVAAPSVFIFPPSDEQLKSGTASVVCLLNNFYPREAKVQWKVDNALQSGNSQESVTEQDSKDSTYSLSSTLTLSKADYEKHKVYACEVTHQGLSSPVTKSFNRGEC |
| 66 % of control | anti-Alb-CD-2-D09 masked anti-CD40 protein with anti-CD40 heavy chain SEQ ID No. 73 (bispecific antibody, human IgG1, kappa, Built as m2; Signal domain left out; Tested in conditioned media; also called aAlb-CD-2-D09) heavy: not shown light: EVQLVESGGGLVQPGNSLTLSCAASGFTFSKFGMSWVRQAVRTRGTSGGLEWVSSISGSGRDTLYADSVKGRFTISRDNAKTTLYLQMNSLRPEDTAVYYCTIGGSLSVSSQGTLVTVSSGGGGSGGGSGGGGSGGGSDIQMTQSPSSVSASVGDRVTITCRASQGIYSWLAWYQQKPGKAPNLLIYTASTLQSGVPSRFSGSGSGTDFTLTISSLQPEDFATYYCQQANIFPLTFGGGTKVEIKRTVAAPSVFIFPPSDEQLKSGTASVVCLLNNFYPREAKVQWKVDNALQSGNSQESVTEQDSKDSTYSLSSTLTLSKADYEKHKVYACEVTHQGLSSPVTKSFNRGEC |
| 42 % of control | anti-Alb-CD-2-D06 masked anti-CD40 protein with anti-CD40 heavy chain SEQ ID No. 73 (bispecific antibody, human IgG1, kappa, Built as m2; Signal domain left out; Tested in conditioned media; also called aAlb-CD-2-D06) heavy: not shown light: EVQLVESGGGLVQPGNSLTLSCAASGFTFSKFGMSWVRQAMNRHENDRGLEWVSSISGSGRDTLYADSVKGRFTISRDNAKTTLYLQMNSLRPEDTAVYYCTIGGSLSVSSQGTLVTVSSGGGGSGGGSGGGGSGGGSDIQMTQSPSSVSASVGDRVTITCRASQGIYSWLAWYQQKPGKAPNLLIYTASTLQSGVPSRFSGSGSGTDFTLTISSLQPEDFATYYCQQANIFPLTFGGGTKVEIKRTVAAPSVFIFPPSDEQLKSGTASVVCLLNNFYPREAKVQWKVDNALQSGNSQESVTEQDSKDSTYSLSSTLTLSKADYEKHKVYACEVTHQGLSSPVTKSFNRGEC |
| 75 % of control | anti-Alb-CD-2-F09 masked anti-CD40 protein with anti-CD40 heavy chain SEQ ID No. 73 (bispecific antibody, human IgG1, kappa, Built as m2; Signal domain left out; Tested in conditioned media; also called aAlb-CD-2-F09) heavy: not shown light: EVQLVESGGGLVQPGNSLTLSCAASGFTFSKFGMSWVRQAPYSQPTKAGLEWVSSISGSGRDTLYADSVKGRFTISRDNAKTTLYLQMNSLRPEDTAVYYCTIGGSLSVSSQGTLVTVSSGGGGSGGGSGGGGSGGGSDIQMTQSPSSVSASVGDRVTITCRASQGIYSWLAWYQQKPGKAPNLLIYTASTLQSGVPSRFSGSGSGTDFTLTISSLQPEDFATYYCQQANIFPLTFGGGTKVEIKRTVAAPSVFIFPPSDEQLKSGTASVVCLLNNFYPREAKVQWKVDNALQSGNSQESVTEQDSKDSTYSLSSTLTLSKADYEKHKVYACEVTHQGLSSPVTKSFNRGEC |
| 63 % of control | anti-Alb-CD-2-F10 masked anti-CD40 protein with anti-CD40 heavy chain SEQ ID No. 73 (bispecific antibody, human IgG1, kappa, Built as m2; Signal domain left out; Tested in conditioned media; also called aAlb-CD-2-F10) heavy: not shown light: EVQLVESGGGLVQPGNSLTLSCAASGFTFSKFGMSWVRQAVGPRETSGGLEWVSSISGSGRDTLYADSVKGRFTISRDNAKTTLYLQMNSLRPEDTAVYYCTIGGSLSVSSQGTLVTVSSGGGGSGGGSGGGGSGGGSDIQMTQSPSSVSASVGDRVTITCRASQGIYSWLAWYQQKPGKAPNLLIYTASTLQSGVPSRFSGSGSGTDFTLTISSLQPEDFATYYCQQANIFPLTFGGGTKVEIKRTVAAPSVFIFPPSDEQLKSGTASVVCLLNNFYPREAKVQWKVDNALQSGNSQESVTEQDSKDSTYSLSSTLTLSKADYEKHKVYACEVTHQGLSSPVTKSFNRGEC |
| 57 % of control | anti-Alb-CD-1-F06 masked anti-CD40 protein with anti-CD40 heavy chain SEQ ID No. 73 (bispecific antibody, human IgG1, kappa, Built as m2; Signal domain left out; Tested in conditioned media; also called aAlb-CD-1-F06) heavy: not shown light: EVQLVESGGGLVQPGNSLTLSCAASGFTFSKFGMSWVRQAVRTRRTSGGLEWVSSISGSGRDTLYADSVKGRFTISRDNAKTTLYLQMNSLRPEDTAVYYCTIGGSLSVSSQGTLVTVSSGGGGSGGGSGGGGSGGGSDIQMTQSPSSVSASVGDRVTITCRASQGIYSWLAWYQQKPGKAPNLLIYTASTLQSGVPSRFSGSGSGTDFTLTISSLQPEDFATYYCQQANIFPLTFGGGTKVEIKRTVAAPSVFIFPPSDEQLKSGTASVVCLLNNFYPREAKVQWKVDNALQSGNSQESVTEQDSKDSTYSLSSTLTLSKADYEKHKVYACEVTHQGLSSPVTKSFNRGEC |
| 63 % of control | anti-Alb-CD-2-C11 masked anti-CD40 protein with anti-CD40 heavy chain SEQ ID No. 73 (bispecific antibody, human IgG1, kappa, Built as m2; Signal domain left out; Tested in conditioned media; also called aAlb-CD-2-C11) heavy: not shown light: EVQLVESGGGLVQPGNSLTLSCAASGFTFSKFGMSWVRQALGRRETSVGLEWVSSISGSGRDTLYADSVKGRFTISRDNAKTTLYLQMNSLRPEDTAVYYCTIGGSLSVSSQGTLVTVSSGGGGSGGGSGGGGSGGGSDIQMTQSPSSVSASVGDRVTITCRASQGIYSWLAWYQQKPGKAPNLLIYTASTLQSGVPSRFSGSGSGTDFTLTISSLQPEDFATYYCQQANIFPLTFGGGTKVEIKRTVAAPSVFIFPPSDEQLKSGTASVVCLLNNFYPREAKVQWKVDNALQSGNSQESVTEQDSKDSTYSLSSTLTLSKADYEKHKVYACEVTHQGLSSPVTKSFNRGEC |
| 31 % of control | anti-Alb-CD-2-C05 masked anti-CD40 protein with anti-CD40 heavy chain SEQ ID No. 73 (bispecific antibody, human IgG1, kappa, Built as m2; Signal domain left out; Tested in conditioned media; also called aAlb-CD-2-C05) heavy: not shown light: EVQLVESGGGLVQPGNSLTLSCAASGFTFSKFGMSWVRQALGRHESSVGLEWVSSISGSGRDTLYADSVKGRFTISRDNAKTTLYLQMNSLRPEDTAVYYCTIGGSLSVSSQGTLVTVSSGGGGSGGGSGGGGSGGGSDIQMTQSPSSVSASVGDRVTITCRASQGIYSWLAWYQQKPGKAPNLLIYTASTLQSGVPSRFSGSGSGTDFTLTISSLQPEDFATYYCQQANIFPLTFGGGTKVEIKRTVAAPSVFIFPPSDEQLKSGTASVVCLLNNFYPREAKVQWKVDNALQSGNSQESVTEQDSKDSTYSLSSTLTLSKADYEKHKVYACEVTHQGLSSPVTKSFNRGEC |
| 48 % of control | anti-Alb-CD-2-D07 masked anti-CD40 protein with anti-CD40 heavy chain SEQ ID No. 73 (bispecific antibody, human IgG1, kappa, Built as m2; Signal domain left out; Tested in conditioned media; also called aAlb-CD-2-D07) heavy: not shown light: EVQLVESGGGLVQPGNSLTLSCAASGFTFSKFGMSWVRQARAATAGSGLEWVSSISGSGRDTLYADSVKGRFTISRDNAKTTLYLQMNSLRPEDTAVYYCTIGGSLSVSSQGTLVTVSSGGGGSGGGSGGGGSGGGSDIQMTQSPSSVSASVGDRVTITCRASQGIYSWLAWYQQKPGKAPNLLIYTASTLQSGVPSRFSGSGSGTDFTLTISSLQPEDFATYYCQQANIFPLTFGGGTKVEIKRTVAAPSVFIFPPSDEQLKSGTASVVCLLNNFYPREAKVQWKVDNALQSGNSQESVTEQDSKDSTYSLSSTLTLSKADYEKHKVYACEVTHQGLSSPVTKSFNRGEC |
| 64 % of control | anti-Alb-CD-2-B07 masked anti-CD40 protein with anti-CD40 heavy chain SEQ ID No. 73 (bispecific antibody, human IgG1, kappa, Built as m2; Signal domain left out; Tested in conditioned media; also called aAlb-CD-2-B07) heavy: not shown light: EVQLVESGGGLVQPGNSLTLSCAASGFTFSKFGMSWVRQAVRPRGTGGLEWVSSISGSGRDTLYADSVKGRFTISRDNAKTTLYLQMNSLRPEDTAVYYCTIGGSLSVSSQGTLVTVSSGGGGSGGGSGGGGSGGGSDIQMTQSPSSVSASVGDRVTITCRASQGIYSWLAWYQQKPGKAPNLLIYTASTLQSGVPSRFSGSGSGTDFTLTISSLQPEDFATYYCQQANIFPLTFGGGTKVEIKRTVAAPSVFIFPPSDEQLKSGTASVVCLLNNFYPREAKVQWKVDNALQSGNSQESVTEQDSKDSTYSLSSTLTLSKADYEKHKVYACEVTHQGLSSPVTKSFNRGEC |
| 68 % of control | anti-Alb-CD-2-D08 masked anti-CD40 protein with anti-CD40 heavy chain SEQ ID No. 73 (bispecific antibody, human IgG1, kappa, Built as m2; Signal domain left out; Tested in conditioned media; also called aAlb-CD-2-D08) heavy: not shown light: EVQLVESGGGLVQPGNSLTLSCAASGFTFSKFGMSWVRQATSWRHERGLEWVSSISGSGRDTLYADSVKGRFTISRDNAKTTLYLQMNSLRPEDTAVYYCTIGGSLSVSSQGTLVTVSSGGGGSGGGSGGGGSGGGSDIQMTQSPSSVSASVGDRVTITCRASQGIYSWLAWYQQKPGKAPNLLIYTASTLQSGVPSRFSGSGSGTDFTLTISSLQPEDFATYYCQQANIFPLTFGGGTKVEIKRTVAAPSVFIFPPSDEQLKSGTASVVCLLNNFYPREAKVQWKVDNALQSGNSQESVTEQDSKDSTYSLSSTLTLSKADYEKHKVYACEVTHQGLSSPVTKSFNRGEC |
| 67 % of control | anti-Alb-CD-1-A09 masked anti-CD40 protein with anti-CD40 heavy chain SEQ ID No. 73 (bispecific antibody, human IgG1, kappa, Built as m2; Signal domain left out; Tested in conditioned media; also called aAlb-CD-1-A09) heavy: not shown light: EVQLVESGGGLVQPGNSLTLSCAASGFTFSKFGMSWVRQAPGSQKPGLEWVSSISGSGRDTLYADSVKGRFTISRDNAKTTLYLQMNSLRPEDTAVYYCTIGGSLSVSSQGTLVTVSSGGGGSGGGSGGGGSGGGSDIQMTQSPSSVSASVGDRVTITCRASQGIYSWLAWYQQKPGKAPNLLIYTASTLQSGVPSRFSGSGSGTDFTLTISSLQPEDFATYYCQQANIFPLTFGGGTKVEIKRTVAAPSVFIFPPSDEQLKSGTASVVCLLNNFYPREAKVQWKVDNALQSGNSQESVTEQDSKDSTYSLSSTLTLSKADYEKHKVYACEVTHQGLSSPVTKSFNRGEC |

Source: patent US20210355219A1 (HARPOON THERAPEUTICS, published 2021)
